For one data set, the target named is T1, GST-Asp1587-Arg1668-H.
T1 chain: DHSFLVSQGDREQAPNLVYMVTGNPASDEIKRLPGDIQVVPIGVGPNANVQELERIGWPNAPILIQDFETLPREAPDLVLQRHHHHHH

A further data set has as its target T2, GST-Asp1459-Arg1668-H.
T2 chain: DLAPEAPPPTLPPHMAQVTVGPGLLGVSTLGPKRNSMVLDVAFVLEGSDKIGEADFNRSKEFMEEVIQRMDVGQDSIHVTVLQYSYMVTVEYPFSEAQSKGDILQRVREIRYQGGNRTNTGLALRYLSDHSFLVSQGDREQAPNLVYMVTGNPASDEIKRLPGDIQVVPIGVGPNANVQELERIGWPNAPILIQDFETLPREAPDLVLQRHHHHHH

A further data set addresses T3, GST-Asp1596-Arg1659-H.
T3 chain: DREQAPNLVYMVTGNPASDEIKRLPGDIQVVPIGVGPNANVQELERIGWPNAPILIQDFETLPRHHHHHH

The next data set deals with T4, GST-Glu1554-Arg1668-H.
T4 chain: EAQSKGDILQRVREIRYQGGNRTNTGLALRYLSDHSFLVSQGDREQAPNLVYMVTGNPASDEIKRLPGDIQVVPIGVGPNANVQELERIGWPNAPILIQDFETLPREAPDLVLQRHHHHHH

The next data set concerns the target T5, GST-Asp1596-Arg1668-H.
T5 chain: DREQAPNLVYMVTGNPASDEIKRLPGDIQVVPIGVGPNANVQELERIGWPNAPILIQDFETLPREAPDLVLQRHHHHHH

B1: ADAMTS-13 (von Willebrand factor cleaving enzyme), as present in normal plasma (protein)
chain: AAGGILHLELLVAVGPDVFQAHQEDTERYVLTNLNIGAELLRDPSLGAQFRVHLVKMVILTEPEGAPNITANLTSSLLSVCGWSQTINPEDDTDPGHADLVLYITRFDLELPDGNRQVRGVTQLGGACSPTWSCLITEDTGFDLGVTIAHEIGHSFGLEHDGAPGSGCGPSGHVMASDGAAPRAGLAWSPCSRRQLLSLLSAGRARCVWDPPRPQPGSAGHPPDAQPGLYYSANEQCRVAFGPKAVACTFAREHLDMCQALSCHTDPLDQSSCSRLLVPLLDGTECGVEKWCSKGRCRSLVELTPIAAVHGRWSSWGPRSPCSRSCGGGVVTRRRQCNNPRPAFGGRACVGADLQAEMCNTQACEKTQLEFMSQQCARTDGQPLRSSPGGASFYHWGAAVPHSQGDALCRHMCRAIGESFIMKRGDSFLDGTRCMPSGPREDGTLSLCVSGSCRTFGCDGRMDSQQVWDRCQVCGGDNSTCSPRKGSFTAGRAREYVTFLTVTPNLTSVYIANHRPLFTHLAVRIGGRYVVAGKMSISPNTTYPSLLEDGRVEYRVALTEDRLPRLEEIRIWGPLQEDADIQVYRRYGEEYGNLTRPDITFTYFQPKPRQAWVWAAVRGPCSVSCGAGLRWVNYSCLDQARKELVETVQCQGSQQPPAWPEACVLEPCPPYWAVGDFGPCSASCGGGLRERPVRCVEAQGSLLKTLPPARCRAGAQQPAVALETCNPQPCPARWEVSEPSSCTSAGGAGLALENETCVPGADGLEAPVTEGPGSVDEKLPAPEPCVGMSCPPGWGHLDATSAGEKAPSPWGSIRTGAQAAHVWTPAAGSCSVSCGRGLMELRFLCMDSALRVPVQEELCGLASKPGSRREVCQAVPCPARWQYKLAACSVSCGRGVVRRILYCARAHGEDDGEEILLDTQCQGLPRPEPQEACSLEPCPPRWKVMSLGPCSASCGLGTARRSVACVQLDQGQDVEVDEAACAALVRPEASVPCLIADCTYRWHVGTWMECSVSCGDGIQRRRDTCLGPQAQAPVPADFCQHLPKPVTVRGCWAGPCVGQGTPSLVPHEEAAAPGRTTATPAGASLEWSQARGLLFSPAPQPRRLLPGPQENSVQSSACGRQHLEPTGTIDMRGPGQADCAVAIGRPLGEVVTLRVLESSLNCSAGDMLLLWGRLTWRKMCRKLLDMTFSSKTNTLVVRQRCGRPGGGVLLRYGSQLAPETFYRECDMQLFGPWGEIVSPSLSPATSNAGGCRLFINVAPHARIAIHALATNMGAGTEGANASYILIRDTHSLRTTAFHGQQVLYWESESSQAEMEFSEGFLKAQASLRGQYWTLQSWVPEMQDPQSWKGKEGT
As to B1, the “cleavage fragment after 2 h reaction with normal plasma at 37 C (SDS-PAGE, western blot with anti-GST antibody)” value in the data set with GST-Asp1587-Arg1668-H is listed as “the expected fragment (indicated by the arrowheads in the figure) was clearly yielded”; with GST-Asp1459-Arg1668-H it was “did not give the fragment or was difficult to give the fragment”; in the data set with GST-Asp1596-Arg1659-H, “did not give the fragment or was difficult to give the fragment”; with GST-Glu1554-Arg1668-H, “a very faint band was produced at the expected position”; with GST-Asp1596-Arg1668-H it was “the expected fragment (indicated by the arrowheads in the figure) was clearly yielded”. For the same protein, the “cleavage fragment after reaction with plasma of TTP patients and family members against normal plasma (SDS-PAGE, western blot with anti-GST antibody)” value in the data set with GST-Asp1596-Arg1668-H is “When each of plasma samples from two patients was reacted with GST-Asp^1596Arg^1668H, there was not detected the fragment which is yielded by the reaction with normal plasma; with plasma of about one-half ADAMTS-13 activity the fragment was yielded at smaller amounts than with the normal plasma”.
